Results published in paper PMC7672466, “Biophysical analysis of Pseudomonas-phage PaP3 small terminase suggests a mechanism for sequence-specific DNA-binding by lateral interdigitation”.

Tests used:
[1] = target: Pseudomonas phage LUZ24 small terminase subunit (TerS) (Pseudomonas phage LUZ24); test: AUC; sedimentation velocity; TerS from heparin peak 2 (850 mM NaCl); 40 000 rpm, 6 °C; 20 mM Tris-HCl pH 7.5, 150 mM NaCl, 3 mM DTT, 2.5% glycerol; 1.3-2.2 mg/ml
[2] = target: Pseudomonas phage NV1 small terminase subunit (TerS) (Pseudomonas phage NV1); test: as above
[3] = target: Pseudomonas phage NV1 small terminase subunit (TerS) (Pseudomonas phage NV1); test: SEC-SAXS; TerS from heparin peak 2; PaP3 at 1.7 mg/ml, NV1 at 2.0 mg/ml; Superdex 200 10/300 GL; 20 mM Tris-HCl pH 8.0, 150 mM NaCl, 2.5% glycerol, 0.5 mM TCEP; 4 °C
[4] = target: Pseudomonas phage NV1 small terminase subunit (TerS) (Pseudomonas phage NV1); test: crystal structure; TerS from heparin peak 2 at 7.5 mg/ml, vapor diffusion hanging drop; PaP3 at 3.0 Å, NV1 at 3.95 Å
[5] = target: Pseudomonas phage PaP3 small terminase subunit (TerS) (Pseudomonas phage PaP3); test: AUC; sedimentation velocity; TerS from heparin peak 2 (850 mM NaCl); 40 000 rpm, 6 °C; 20 mM Tris-HCl pH 7.5, 150 mM NaCl, 3 mM DTT, 2.5% glycerol; 1.3-2.2 mg/ml
[6] = target: Pseudomonas phage PaP3 small terminase subunit (TerS) (Pseudomonas phage PaP3); test: SEC-SAXS; TerS from heparin peak 2; PaP3 at 1.7 mg/ml, NV1 at 2.0 mg/ml; Superdex 200 10/300 GL; 20 mM Tris-HCl pH 8.0, 150 mM NaCl, 2.5% glycerol, 0.5 mM TCEP; 4 °C
[7] = target: Pseudomonas phage PaP3 small terminase subunit (TerS) (Pseudomonas phage PaP3); test: crystal structure; TerS from heparin peak 2 at 7.5 mg/ml, vapor diffusion hanging drop; PaP3 at 3.0 Å, NV1 at 3.95 Å
[8] = target: T1, PaP3 TerS WT (small terminase, peak 2) (Pseudomonas phage PaP3, UniProt Q8H9R5 1-152); test: EMSA; agarose gel, 0-40 uM TerS; EMSA: incubation 37 C 30 min (binding buffer not stated; proteins in GF buffer 20 mM Tris-HCl pH 7.5, 150 mM NaCl, 5 mM bME, 2.5% glycerol); 1% agarose or 4-16% acrylamide gel, 0.5x TBE, 4 C; settings: protein: recombinant; tags: GST removed by PreScission protease; chain copies: 9; label: 5' Cy3 on both strands; blunt
T1 sequence: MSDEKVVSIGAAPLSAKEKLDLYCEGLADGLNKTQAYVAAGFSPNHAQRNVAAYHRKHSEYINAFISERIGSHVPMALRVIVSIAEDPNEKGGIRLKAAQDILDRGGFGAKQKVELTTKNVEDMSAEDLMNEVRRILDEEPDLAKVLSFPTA

“Pseudomonas phage LUZ24 small terminase subunit (TerS) (natural protein)” was tested, and the stoichiometry N [1] was 9 mer.

For “Pseudomonas phage NV1 small terminase subunit (TerS) (natural protein)”, the stoichiometry N [2] was 9 mer, the stoichiometry N [3] was 9 and the stoichiometry N [4] was 9.

“Pseudomonas phage PaP3 small terminase subunit (TerS) (natural protein)” gave a stoichiometry N [5] of 9 mer, a stoichiometry N [6] of 9 and a stoichiometry N [7] of 9.

B1: Cy3-cos (dsDNA)
DNA 1: GCCGGCCCCTTTCCGCGTTA
DNA 2: TAACGCGGAAAGGGGCCGGC
B1: binds [8].
